Measured values as given in patent publication JP2004097211A (dated 2004).

T1: CDR1抗原ペプチド
T1 peptide: RSSKSLLYSNGNTYLY

B1: i41SL1−2抗体の軽鎖 (other)
VL: DIVMTQTQLTLTINIGQPASISCKSSQSLLDSDGKTYLNWLFQRPGQSPKRLIYLVSKLDSGVPDRFTGSGSGTDFTLKISRVEAEDLGVYYCWQGTHFPLTFGAGTKLELRRA
modifications: cysteines reduced with b-mercaptoethanol and alkylated with iodoacetamide (positions not stated)
B2: i41SL1−2抗体の重鎖 (other)
VH: QVQLQHSGAELVRPGSSVKVSCKALGYTSTDYEIHWVKQTPVRGLEWIGAIHPGSDVIVYNQKFKGTATLTADKSSSTAYMELRSLTSEDSAVYYCTREGGSVDYVWGQGTLVTVSA
modifications: cysteines reduced with b-mercaptoethanol and alkylated with iodoacetamide (positions not stated)
B3: HpU−20抗体のL鎖 (protein)
VL: DVLMTQTPLSLPISLGDQASISCRSSQSIVQSNGNTYLEWYVQKPGQSPKLLIYKVSNRFSGVPDRFSGSGSGTDFTFKISRVEAEDLGVYYCIQGSHVPLTFGAGTKLELKRA
modifications: cysteines reduced with b-mercaptoethanol and alkylated with iodoacetamide (positions not stated)

Tests used:
CDR1抗原ペプチド = target: T1, CDR1抗原ペプチド; experiment: cell-based or functional assay
[1] = target: ヘリコバクターピロリ菌のウレーアゼ (ヘリコバクターピロリ菌 (Helicobacter pylori)) (UniProt P14916); experiment: cell-based or functional assay

| Binder | 回転数(kcat) (CDR1抗原ペプチド) | 触媒効率(kcat/Km) (CDR1抗原ペプチド) | タンパク質分解実験 (SDS-PAGE, 1 h): decrease of the β subunit band against the control [1] |
| --- | --- | --- | --- |
| B1 | ~0.005 fold of trypsin (trypsin measured on another synthetic peptide) | – | – |
| B2 | ~0.005 fold of trypsin (trypsin measured on another synthetic peptide) | ~0.1 fold of trypsin (trypsin measured on another synthetic peptide) | – |
| B3 | – | – | 26.7% |
